Test results published in paper doi:10.1101/2023.11.01.565197 (bioRxiv, 2023).

Target: the molecule itself
Assay: cryo-EM structure

B1: rabbit Slo1 (KCNMA1) (natural protein)
chain: not shown
For B1, the “stoichiometry N” value was 4.
